# In paper PMC6224402, “PIM2-mediated phosphorylation of hexokinase 2 is critical for tumor growth and paclitaxel resistance in breast cancer” (Oncogene, 2018):
# T1: GST-tagged HK2 (human, UniProt P52789 1-917)
# T1 construct: Hexokinase 2 (HK2), human cDNA cloned into pGEX-4T-1; also called GST-HK2; source: E. coli BL21 (DE3), purified
# T1 sequence (looked up): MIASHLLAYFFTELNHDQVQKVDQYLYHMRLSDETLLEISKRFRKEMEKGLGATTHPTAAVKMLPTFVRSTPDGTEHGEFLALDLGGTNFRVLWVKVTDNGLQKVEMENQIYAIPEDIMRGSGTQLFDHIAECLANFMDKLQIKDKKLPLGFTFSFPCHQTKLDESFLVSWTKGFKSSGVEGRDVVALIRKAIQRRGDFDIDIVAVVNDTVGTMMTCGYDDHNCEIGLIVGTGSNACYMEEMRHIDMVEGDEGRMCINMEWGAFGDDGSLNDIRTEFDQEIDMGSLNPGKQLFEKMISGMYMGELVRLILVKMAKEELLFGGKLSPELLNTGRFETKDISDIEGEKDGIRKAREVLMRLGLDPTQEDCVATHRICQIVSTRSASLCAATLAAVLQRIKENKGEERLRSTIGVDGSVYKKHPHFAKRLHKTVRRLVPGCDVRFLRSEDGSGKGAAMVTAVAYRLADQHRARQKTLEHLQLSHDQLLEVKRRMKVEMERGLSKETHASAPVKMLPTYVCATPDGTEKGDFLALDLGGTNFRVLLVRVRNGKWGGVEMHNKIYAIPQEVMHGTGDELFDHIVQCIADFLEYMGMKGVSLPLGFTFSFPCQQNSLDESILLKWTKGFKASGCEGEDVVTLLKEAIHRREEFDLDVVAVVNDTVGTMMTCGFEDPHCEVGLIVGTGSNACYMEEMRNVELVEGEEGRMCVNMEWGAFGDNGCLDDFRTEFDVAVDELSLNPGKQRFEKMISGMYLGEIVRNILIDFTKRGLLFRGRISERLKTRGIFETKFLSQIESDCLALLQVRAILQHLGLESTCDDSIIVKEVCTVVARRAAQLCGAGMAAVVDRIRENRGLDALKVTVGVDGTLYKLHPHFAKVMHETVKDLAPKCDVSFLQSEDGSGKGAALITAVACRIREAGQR
# Target: T1, GST-tagged HK2
# Assay: pull-down; purified GST-tagged HK2 or GST mixed with His-PIM2; GST-binding resin, more than 8 h, five washes with lysis buffer
# Settings: both partners purified
binder,measurement,value
"His-tagged PIM2 (enzyme, Serine/threonine kinase PIM2, human cDNA cloned into pet28a; also called His-PIM2; source: E. coli BL21 (DE3), purified) not shown",binding result,binds
